The values below come from patent publication US20230348614A1 (VISTERRA, published 2023).

One assay concerns the target T1, R155A (Homo sapiens, UniProt P18827).
T1 construct: clone of the alanine scanning library on HEK-293T cells; m17 with one substitution; also called CD138 R155A
T1 sequence (CD138 (SDC1), full length, point mutant, looked up): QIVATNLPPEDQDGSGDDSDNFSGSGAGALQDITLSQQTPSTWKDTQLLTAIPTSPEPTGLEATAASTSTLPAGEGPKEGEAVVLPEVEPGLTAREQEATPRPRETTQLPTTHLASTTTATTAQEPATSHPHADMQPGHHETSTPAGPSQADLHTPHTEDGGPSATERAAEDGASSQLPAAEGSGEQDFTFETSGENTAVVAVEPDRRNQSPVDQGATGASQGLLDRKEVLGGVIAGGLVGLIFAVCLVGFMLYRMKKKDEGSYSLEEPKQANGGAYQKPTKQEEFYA
The experiment in a line: alanine scan: flow cytometry on HEK-293T cells expressing the mutant clone, 4320 Fab 0.50 ug/mL, normalised to WT CD138; Range %WT Binding 6; Normalized 4320 vs. BB4 39.8. The procedure:
(§1) Serial dilutions of each MAb were tested for immunoreactivity against cells expressing target protein (WT) or vector alone. Validation of target expression and optimization of detection and binding of anti-CD138 antibodies both by flow cytometry was completed in replicate (N=4). The optimal screening concentration for each MAb was determined based on the raw signal values and signal-to-background calculations specifically optimized for each test article. Optimized parameters included the use of 10% goat serum as blocking reagent. Primary antibody staining was for 60 minutes at 25° C. Wash buffer include phosphate buffered saline (divalent metal ion free), pH 7.4. […] Secondary antibodies were diluted 1:400 and incubated for 30 minutes at 25° C.
(§2) Library screens of very-high-affinity mAbs can fail to yield critical residues for antibody binding due to deficiencies of such an assay to detect and differentiate critical vs. less critical binding based on affinity and quantification of cell binding. One common approach in the literature is the use of monovalent antibody derived fragments such as Fab usually weakens binding sufficiently to allow identification of critical residues for binding. […] Binding of each test Ab to each mutant clone in the alanine scanning library was determined, in duplicate, and likewise evaluated by flow cytometry.

Another assay concerns the target T2, V110A (Homo sapiens, UniProt P18827).
T2 construct: clone of the alanine scanning library on HEK-293T cells; m17 with one substitution; also called CD138 V110A
T2 sequence (CD138 (SDC1), full length, point mutant, looked up): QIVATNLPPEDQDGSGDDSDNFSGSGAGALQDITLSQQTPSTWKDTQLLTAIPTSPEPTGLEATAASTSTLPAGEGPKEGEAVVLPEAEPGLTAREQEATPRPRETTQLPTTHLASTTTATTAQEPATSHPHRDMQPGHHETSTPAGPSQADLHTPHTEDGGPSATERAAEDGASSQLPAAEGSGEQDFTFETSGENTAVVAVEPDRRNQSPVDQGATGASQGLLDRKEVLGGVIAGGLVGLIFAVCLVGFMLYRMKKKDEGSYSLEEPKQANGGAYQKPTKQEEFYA
The experiment in a line: alanine scan: flow cytometry on HEK-293T cells expressing the mutant clone, 4320 Fab 0.50 ug/mL, normalised to WT CD138; Range %WT Binding 2; Normalized 4320 vs. BB4 28.3. The procedure:
as §1, §2

The next assay addresses T3, L107A (Homo sapiens, UniProt P18827).
T3 construct: clone of the alanine scanning library on HEK-293T cells; m17 with one substitution; also called CD138 L107A
T3 sequence (CD138 (SDC1), full length, point mutant, looked up): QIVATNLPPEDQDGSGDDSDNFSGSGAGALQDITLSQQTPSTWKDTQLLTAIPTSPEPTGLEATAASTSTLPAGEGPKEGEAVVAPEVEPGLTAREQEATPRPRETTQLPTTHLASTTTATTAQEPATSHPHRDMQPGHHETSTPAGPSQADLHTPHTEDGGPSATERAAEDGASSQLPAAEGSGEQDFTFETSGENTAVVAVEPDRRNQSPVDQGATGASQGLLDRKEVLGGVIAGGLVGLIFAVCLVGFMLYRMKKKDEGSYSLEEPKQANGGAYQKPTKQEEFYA
The experiment in a line: alanine scan: flow cytometry on HEK-293T cells expressing the mutant clone, 4320 Fab 0.50 ug/mL, normalised to WT CD138; Range %WT Binding 13; Normalized 4320 vs. BB4 16.8. The method, then: as §1, §2

The target of another assay is T4, P112A (Homo sapiens, UniProt P18827).
T4 construct: clone of the alanine scanning library on HEK-293T cells; m17 with one substitution; also called CD138 P112A
T4 sequence (CD138 (SDC1), full length, point mutant, looked up): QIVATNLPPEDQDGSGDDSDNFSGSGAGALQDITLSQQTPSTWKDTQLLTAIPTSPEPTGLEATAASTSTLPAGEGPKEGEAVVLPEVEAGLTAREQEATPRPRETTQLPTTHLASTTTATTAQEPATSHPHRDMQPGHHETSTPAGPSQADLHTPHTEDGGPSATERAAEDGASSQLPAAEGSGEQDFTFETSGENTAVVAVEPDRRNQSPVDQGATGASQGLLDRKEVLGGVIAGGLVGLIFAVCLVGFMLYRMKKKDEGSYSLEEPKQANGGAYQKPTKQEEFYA
The experiment in a line: alanine scan: flow cytometry on HEK-293T cells expressing the mutant clone, 4320 Fab 0.50 ug/mL, normalised to WT CD138; Range %WT Binding 9; Normalized 4320 vs. BB4 21.6. The method, then: as §1, §2

For a further assay, the target named is T5, G184A (Homo sapiens, UniProt P18827).
T5 construct: clone of the alanine scanning library on HEK-293T cells; m17 with one substitution; also called CD138 G184A
T5 sequence (CD138 (SDC1), full length, point mutant, looked up): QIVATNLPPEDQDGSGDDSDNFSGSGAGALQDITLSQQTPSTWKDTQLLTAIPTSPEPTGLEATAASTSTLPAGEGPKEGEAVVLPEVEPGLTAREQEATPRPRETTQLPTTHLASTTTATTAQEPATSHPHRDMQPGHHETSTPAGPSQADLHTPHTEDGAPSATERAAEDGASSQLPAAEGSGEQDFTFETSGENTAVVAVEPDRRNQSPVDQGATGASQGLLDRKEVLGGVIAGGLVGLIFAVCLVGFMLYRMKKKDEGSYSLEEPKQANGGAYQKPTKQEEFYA
The experiment in a line: alanine scan: flow cytometry on HEK-293T cells expressing the mutant clone, 4320 Fab 0.50 ug/mL, normalised to WT CD138; Range %WT Binding 17; Normalized 4320 vs. BB4 60.6. The procedure:
as §1, §2

B1: Fab fragment of mAb 4320 (Fab, V domains shown)
VH: QVQLVQSGAEVKKPGASVKVSCKASGYSFSSYYMHWVRQAPGQGLEWMGTIHPSDSTTNYNQKFQGRVTMTVDTSTRTAYMELSSLRSEDTAVYYCANFVYWGQGTTVTVSS
VL: DIVMTQTPLSLSVTPGQPASISCKSSKSLLYKDGKTYLNWFLQKPGQSPQLLIYVVSTRASGVPDRFSGSGSGTDFTLKISRVEAEDVGVYYCQQLVEYPYTFGQGTKLEIKR
modifications: N-terminal Q1 observed as pyroglutamic acid (PCA) in the 138-2-5 complex
notes: In the crystal structures heavy chain residues 1-213 were traced; also called Fab4320
Take B1: the “Mean %WT Binding” value with R155A is 12.3 %WT; with V110A it was 21.9 %WT; with L107A it was 18.2 %WT; in the assay with P112A it was 22.6 %WT; with G184A, 60.1 %WT.
